Measurements as given in article PMC3942423 (Nature chemical biology, 2009).

Legend:
[1] = substrate: OC[C@H]1O[C@H](O[C@H]2[C@@H](O)[C@H](O)[C@@H](CO)O[C@@H]2O)[C@@H](O)[C@@H](O)[C@@H]1O; assay: mannobiose hydrolysis kinetics; assay type: biochemical, Bacteroides thetaiotaomicron; conditions: other: most active mannobiose substrate
[2] = substrate: O=[N+]([O-])c1ccc(O[C@H]2O[C@H](CO)[C@@H](O)[C@H](O)[C@@H]2O)cc1; assay: 4NP-Man hydrolysis kinetics; assay type: biochemical, Bacteroides thetaiotaomicron; conditions: other: substrate 4NP-Man
[3] = substrate: OC[C@H]1O[C@H](O[C@@H]2[C@H](O)[C@@H](O)O[C@H](CO)[C@H]2O)[C@@H](O)[C@@H](O)[C@@H]1O; assay: purified protein, by the assay type; conditions: other: most active mannobiose substrate, pH 7.0, 37.0 °C

B1: Bt4092 (Bacteroides thetaiotaomicron VPI-5482) (protein)
chain: QLKDLVQYVNTLQGTDSNFGLSYGNTYPTTGMPYGMHMWSAQTGKNGDGFKYMYAVDKIRAFSQSHQCSPWVSDYAVYSFMPMVGELVVNQDARATKFSHDNEIAKPHYYKVTFDNGITTEMAPTTRGVHLRFSYPTTGDAYLVLDGYTDMSEIKIDPAKRQISGWVNNQRFVNDSKSFRNYFVVQFDKPFEDYGVWENQKDEVFPQKLDGAGKGYGAFIKFKKGSKVQAKAASSYISAEQALITLNKELGKDKNLEVTKARGQKTWNEVLNRIVVEGCTDEQMKTFYSCLFRANLFSRKFYERKENGEPYYYSPYNGKIYDGYMYTDNGFWDTFRSQFPLTNILHPTMQGRYMNALLAAQEQCGWLPSWSSPGETGGMLGNHSISLLADAWAKGIRDFDPEKALKAYAHEAMNKGPWGGANGRGFWKEYFQLGYVPYPESMGSSAQTMEYAYDDFCGYQLAKMVGNKHYQEVFARQMYNYKNVFDKSIGFMRGKGVDGKWQEPFDPLEWGGPFCEGNAWHYTWSVFHDVQGLIDLFGSDEKFTTKIDSVFTIPNIIKPGTYGGVIHEMKEMELANMGQYAHGNQPIQHMPYLYCYAGQPWKTQYWVRQIVERLYNSTEKGYPGDEDQGGMSSWYILSSLGIYAVCPGTDEYVIGSPLFKKATITMENGNKFVIEAPENSKENLYIQSATLNGRLLDKNYIHYDDIAEGGVLKFEMGSQPNKERCTSKYAAPFSLSKE
B1 gave a Km ([1]; enzyme Bt4092, pH 7.0) of 2000 ± 450 µM, a kcat ([1]; enzyme Bt4092, pH 7.0) of 1.83 s⁻¹ and a kcat/Km ([1]; enzyme Bt4092, pH 7.0) of 900 M⁻¹ s⁻¹.

B2: Bt3990 (Bacteroides thetaiotaomicron VPI-5482) (protein)
chain: KDWTQYVNPLMGSQSTFELSTGNTYPAIARPWGMNFWTPQTGKMGDGWQYTYTANKIRGFKQTHQPSPWINDYGQFSIMPIVGQPVFDEEKRASWFAHKGEVATPYYYKVYLAEHDIVTEMTPTERAVLFRFTFPENDHSYVVVDAFDKGSYIKIIPEENKIIGYTTRNSGGVPENFKNYFIIEFDKPFTYKATVENGNLQENVAEQTTDHAGAIIGFKTRKGEQVNARIASSFISFEQAAANMNELGKDNIEQLAQKGKDAWNQVLGKIEVEGGNLDQYRTFYSCLYRSLLFPRKFYELDANGQPIHYSPYNGQVLPGYMFTDTGFWDTFRCLFPLLNLMYPSVNKEMQEGLINTYLESGFFPEWASPGHRGCMVGNNSASILVDAYMKGVKVDDIKTLYEGLIHGTENVHPEVSSTGRLGYEYYNKLGYVPYDVKINENAARTLEYAYDDWCIYRLAKELKRPKKEISLFAKRAMNYKNLFDKESKLMRGRNEDGTFQSPFSPLKWGDAFTEGNSWHYTWSVFHDPQGLIDLMGGKEMFVTMMDSVFAVPPIFDDSYYGQVIHEIREMTVMNMGNYAHGNQPIQHMIYLYDYAGQPWKAQYWLRQVMDRMYTPGPDGYCGDEDNGQTSAWYVFSALGFYPVCPGTDEYVMGTPLFKKATLHFENGNSLVIDAPNNSTENFYIDSMSFNGADHTKNYLRHEDLFKGGTIKVDMSNRPNLNRGTKEEDMPYSFSKE
Protein B2 has a Km ([2]; enzyme Bt3990, pH 7.0) of 4200 ± 420 µM, a kcat ([2]; enzyme Bt3990, pH 7.0) of 0.0933 ± 0.00467 s⁻¹ and a kcat/Km ([2]; enzyme Bt3990, pH 7.0) of 21.7 M⁻¹ s⁻¹. The Km ([1]; enzyme Bt3990, pH 7.0) was 760 ± 110 µM, the kcat ([1]; enzyme Bt3990, pH 7.0) was 86.7 ± 5 s⁻¹ and the kcat/Km ([1]; enzyme Bt3990, pH 7.0) was 113000 M⁻¹ s⁻¹.

B3: Bt1769 (Bacteroides thetaiotaomicron VPI-5482) (protein)
chain: CNGSLQTADRTPVDYVNPYIGNISHLLVPTFPTIQLPNSMLRVYPERADYTSELLKGLPLIVTNHRERSAFNFSPYQGEKLRPVITYNYDNEHITPYSFDVELDDNRMKAEYALSHQSAIYRITYEADKPAYLIVNSRNGSIHANENFISGRQQLNDNTNVYVYIEAQEKPISAGILENGTIETSKDNAEGANACAAWRFADGTTTVNLRYGISFISEEQAEKNLHRELKDYNIKALAEAGRQIWNETLGRIQVEGGTEDDKTVFYSSFYRTFERPICMSEGGRYFSAFDGKVHEDNGTPFYTDDWIWDTYRAAHPLRTLIDQQKEEDIIASYLRMAEQMGNMWMPTFPEVTGDTRRMNSNHAVATVADALAKGLKVDTAKAYEACRKGIEEKTLAPWSGAPAGWLDNFYRENGYIPALRVDEPENDPNVHPFEKRQPVAVTLGTSYDQWCLSRIAQALNKKEEAEYYLKCSYNYRNLYNKETAFFHPKDKEGQWIEPFDYRFPGGMGAREYYGENNGWVYRWDVPHNVADLISLMGGNEQFIANLDRTFTEPLGRSKYAFYAKLPDHTGNVGQFSMANEPSLHVPYLYNYAGQPWKTQKRIRQMLKTWFRNDLMGIPGDEDGGGMTSFVVFSSLGFYPVTPGLPAYTIGSPLFTDAKIRLSNGAVFEIEAKNASTDNKYIQSATLNGKEWNKSWFSHDDLMSGGKLVLVMGNKPNKTWASGAEDVPPSLEIK
B3 gave a Km ([3]; enzyme Bt1769) of 1300 ± 140 µM, a kcat ([3]; enzyme Bt1769) of 63.3 s⁻¹ and a kcat/Km ([3]; enzyme Bt1769) of 48300 M⁻¹ s⁻¹.

B4: Bt2199 (Bacteroides thetaiotaomicron VPI-5482) (protein)
chain: MVTRLFFLSICFPFLLTSCQQSKKTVEFVDYVNPLMGTESTFAFSHGNTYPAVAVPWGMNFWSPQTGENGSGWMYTYTDSLMRGFRQTHQPSPWINDYGTFSIMPLAGELKMSHKERLVPFSHQQEKATPYNYSVTFNNGLQTSLSATSRGAVFEVSFPEKEDQYVVVDAYNGGSSITIEPEKRLVKGATRYNNGGVPDNFANYFMMEFSHPVIEYGTYNGDTLLHHQTDVAADYTCAYLKFDVPAGEKLTIRTASSFISPEQAAINFNREVADADVQLISGKAREQWNNYLGRVEAEGGTDEQLRTFYSCLYRTLLFPREFYEFDSQGNPVYYSPYDGNVHDGYMYTDNGFWDTFRAVHPLFTLLYPEVSERVTQSIINAYNESGFMPEWASPGHRGCMIGNNSVSLLVDAWMKGIQTVDAEKALEAMIHQTQARHAEIASVGRDGFEYYDKLGYVPYPEVPEATAKTLEYAYADWCIARFAESLGKQDIADQYYQKAPNYRNLYYPEHGFMWTKDAKGNWRDRFDATEWGGPFTEGSSWHWTWSVFHDPEGLSELMGGHEPMIARLDSMFVAPNTYNYGTYGFVIHEIAEMVALNMGQYAHGNQPVQHAIYLYDYIGQPWKTQYHLRNVMDKLYNSGSKGYCGDEDNGQTSAWYVFSAMGFYPVCPGMPEYAIGSPLFKKVTLHLPEGKNFVVSAADNAADRPYIRKALLNGQEFTRNYLTHDELKQGGELNLSMDSVPNQQRGTQPADFPYSYSK
With B4 the kcat ([2]; enzyme Bt2199, pH 7.0) was 0.105 ± 0.00483 s⁻¹, the kcat/Km ([2]; enzyme Bt2199, pH 7.0) was 14 M⁻¹ s⁻¹ and the kcat ([1]; enzyme Bt2199, pH 7.0) was 40 ± 2.33 s⁻¹. It also gave a kcat/Km ([1]; enzyme Bt2199, pH 7.0) of 60000 M⁻¹ s⁻¹.

B5: Bt3784 (Bacteroides thetaiotaomicron VPI-5482) (protein)
chain: MKTHFSFKHLLFIGGAVLYSMQISAVKNPVDYVSTLVGTQSKFELSTGNTYPATALPWGMNFWTPQTGKMGDGWAYTYNADKIRGFKQTHQPSPWMNDYGQFSIMPITGGLVFDQDQRASWFSHKAEVAKPYYYKVYLADHDVTTELVPTERAAMFRFTYPETKNAYVVIDAFDKGSYVKVIPEENKIIGYSTKNSGGVPENFKNYFVIQFDKPFTFTSGVKENNILPNETEVQGNHTGAIIGFATQKGEIVHARVASSFISYEQAELNLKELGKDSFDQLVTKGKDIWNREMSKVDVEDDNIDNLRTFYSCLYRSMLFPRSFYEIDAKGQVVHYSPYNGKVLPGYMFTDTGFWDTFRCLFPFLNLMYPSMNQKMQEGLVNAYLESGFLPEWASPGHRDCMVGNNSASVVADAYIKGLRGYDIETLWEALKHDANAHLRGTASGRLAYDAYNKLGYVPNNIGIGQNVARTLEYAYNDWTIYTLGKKLGKPASEIDIFKQRALNYKNVYHPKRKLMVGKDDKGVFNPKFDAVDWSGEFCEGNSWHWSFCVFHDPQGLIDLMGGKKEFNNMMDSVFVIPGKQGMESRGMIHEMREMQVMNMGQYAHGNQPIQHMVYLYNYSGEPWKAQHWVREIMDKLYTAGPDGYCGDEDNGQTSAWYVFSALGFYPVCPGTDQYILGTPLFKSAKLHLENGKTVTIKASNNNTDNRYVKDMKVNGKAFTRNYLTHDQLLKGANIQYQMSPTPNKQRGTTEKDIPYSLSFE
B5 showed a kcat ([2]; enzyme Bt3784, pH 7.0) of 0.08 ± 0.0065 s⁻¹, a kcat/Km ([2]; enzyme Bt3784, pH 7.0) of 11.5 M⁻¹ s⁻¹ and a kcat ([1]; enzyme Bt3784, pH 7.0) of 0.45 ± 0.0917 s⁻¹. The kcat/Km ([1]; enzyme Bt3784, pH 7.0) was 183 M⁻¹ s⁻¹.

B6: Bt3773 (Bacteroides thetaiotaomicron VPI-5482) (protein)
chain: KQDYSKSEGLLQYVDPYIGSGFHGHVFVGTSVPYGMVQLGPNNIHKGWDWCSGYHYSDSILIGFSHTHLSGTGCTDLGDILIMPLNEIRTPRGNQDDIRDGYASKYSHDNEIARPEYYSLILDRYNIKAELTATDRVGFHRYTYPEGKPVSILIDLREGNGSNAYDSYIRKVDDYTVEGYRYVRGWSPSRKVYFVLKSDQKIEKFTAYDDNTPKLWDQLKVESVKSVLTFGNVKEVKIKVAISSVSCDNAAMNLQAELSHWDFDKVVKMSSDRWNKQLDKMTVESDDEAAKRVFYTAHYHTMIAPTLYCDVNGEYRGMNDMIYTDPKKANYTTLSLWDTYRALNPLMTIIQPEMVDNVINSMLSIYRQQDKLPIWPLMSGETNCMPGYSSVPVIADAYLKGFTGFDAEEALTAMKATATYEGQNGVPYVMAKGYIPADKIHEATSIAMEYAVDDWGIAAMAQKMGKTADYETFSKRAHYYKNYFDSSIHFIRPKLEDGSWRTPYDPARSIHGVGDFCEGNGWQYTFFAPQDPYGLISLFGGDKPFTSKLDSFFTNNDSMGEGASSDITGLIGQYAHGNEPSHHIAYLYTYAGEQWKTAEKVRFIMSDFYTDQPDGIIGNEDCGQMSAWYLLSAMGFYQVNPSDGVFAFGSPRFKKIEVKVRGGKVFTVEAPNNSKDNIYIQKVYLNGKPYHKSYITYDDIINGSTLKFEMGKKPAKNFGKASANRPIVLNK
Work on B6 yielded a Km ([3]; enzyme Bt3773) of 2500 ± 370 µM, a kcat ([3]; enzyme Bt3773) of 0.0183 s⁻¹ and a kcat/Km ([3]; enzyme Bt3773) of 7.5 M⁻¹ s⁻¹.

B7: Bt3962 (Bacteroides thetaiotaomicron VPI-5482) (protein)
chain: QKQPVDYVNPLMGTDSKISLSNGNTYPAIALPWGMNFWMPQTGKMGDGWAYTYASDKIRGFKQTHQPSPWINDYGQFSIMPMTKQLKIDQDSRASWFSHKAEKATPYYYSVYLSEYNMTTEIAPTERCAYFRFTFPEASDAYVVVDAFDRGSYVKVIPEENKIVGYTTRNSGGVPQNFRNYFVIEFDKPFTFNKVWADYHLVETHLELQSNHVGAAIGFSTKKGEQVHAKVASSFISPEQAELNLKEIGNKTFEQTKEAGRKAWNDVLGRIKVEDDDENRMRTFYSCLYRSVLFPRMFHEVNAKGETVHYSPYNGEIRPGYMFTDTGFWDTFRCLFPFVNLIYPSMGEKMQEGLLNTYLESGFFPEWASPGHRGCMVGNNSASVVADAFMKNVTKADAEKMYEGLLKGANSVHPRVSTTGRRGYEYYNKLGYVPYDVKINENAARTLEYAYDDWCIYRMGEKLGRPAEELELYKSRSQNYRNLFDPETKLMRGKNADGTFQTPFNPFKWGDAFTEGNSWHYTWSVFHDVQGLADLMGGRKMFVSMLDSVFNLPPIFDDSYYGGVIHEIREMEIANMGNYAHGNQPIQHMIYLYNYAGEPWKAQYWLREVMNRLYFATPDGYCGDEDNGQTSAWYVFTALGFYPVCPGSNEYVMGAPYFKKATITLENGKKLEISAPKNSDANRYIRSLNYNGKNYTKNYLNHFDLLKGGRLVFDMDNKPNKGRGINESDFPYSFSRDNK
In the case of B7, the Km ([2]; enzyme Bt3962, pH 7.0) is reported as 5000 ± 840 µM, the kcat ([2]; enzyme Bt3962, pH 7.0) is reported as 0.283 ± 0.0267 s⁻¹ and the kcat/Km ([2]; enzyme Bt3962, pH 7.0) is reported as 56.7 M⁻¹ s⁻¹. For the same protein, the Km ([1]; enzyme Bt3962, pH 7.0) was 430 ± 52 µM, the kcat ([1]; enzyme Bt3962, pH 7.0) was 13.7 s⁻¹ and the kcat/Km ([1]; enzyme Bt3962, pH 7.0) was 31700 M⁻¹ s⁻¹.
